Assay results taken from a protein production outcome set (Wang et al. 2014).

Assay: label from the status in PepcDB records

Sequence: MAKSVNALINEAIEAGKKRDYKTSILILENLAAEGLAEVSSPFYGEKKGNPEIYLYLSRAWAAVNNYGRSIAYGKAYIKRCSSDPSANSTDLPMGFFFLGRSYLAAGQYDRAVYCLEKSLKLNPHPLETRAMLGSAYLKWKKPRLARETFEEALKFAPSDAKLNAGYLNSLFVEGIYELRNGNADMARQMFSFAIKNGIDGVAPRLYLAHALKMEGYLPEALGQYEAACEFEPDDPALKWYPAMIKMQLGDTTAAAEDFAKLGIEIPDDGVSDRFFAMGVIKKHMERGDYSRAAVAARIFIKTFGSDAEIRLLAAEAQRSMGNTNTALGHYKCALEHEPENPYPHYGIMLALQEAYRWEELSAEILRAEASGVCDADDIYYYKIITAAHIDNPPEEVLPHLQALIQNGRSDSAIFNAMGCCYIKLNMPDLALNWYERALSINEKDEEAKIGIIASYENLQLNKEADEAYNSYLNEWGKNIYIRRDYVLFLEKCERWEDAGNQLEILMSQGKKVNFDPELALFRRKAGQYQKAAILYRKMLRAKPEERLLLHNLVFCLDKMGQTKVSLDLLKAAEKMFGIKTDSMLIKGILQMRLKKKEDAIKTFQYILEKEPKNKHAAEFLEKAYGK
- protein production: failed

Sequence: MIDFNVDSARCTRCGQCVADCPSRIIVMATGEYPSIAPGKEFSCLRCEHCLAVCPEAAISILGFSPDGSTPLKGNLPETDQLETLIAGRRSVRRYCPENLSPELIDKLITVASCAPTGVNARKVRFTVLDDREKTAHFRDEVMERLVRLLEEEALPESKAYYARFVKVWQKHKIDLVFRDAPHLLIATAPKSLSTPRQDCVIALTTFELYAQACGIGTLWNGIATWAIEEMLPEMRQRLGIPDDHAFGYAMLFGKPAVRYARTVQHHPPEIYRVPLEHHHHHH
- protein production: not failed

Sequence: MIDPREPIVTPVPVEELRPTQITVGMREVALKRQMIREQDAKKKTGAFLGKHMVPVVLGPKNRNYVTDHHHLARALLEEGVKDVLVTVISDLSALDKDTFLFVLDNRGWMHPFDESGRRRDYSAIPKTIGELIDDPYRSMAGELRRMGGFAKDTTPFSEFIWADFLRRRIDRNAVAKNFDKAMKEALSLAKGKDADYLPGWCGPTSDLEHHHHHH
- protein production: not failed

Sequence: MHIRRDQYMNEYVWETCEELDKKIADRVRLIRKRRSISQEKLSKISNVSLGSIKRFETTGQISLLSLTKIAVALNIADDLRNIFTEIPYNSIEEVINERR
- protein production: not failed

Sequence: MSEDKDMKNRNAMTIKRFVDVEEDGEHGGSGEFAELFQESIKQHRVGEVVTGKVVHISNEFVLVDIGYKSEGCIAIDEFLDEDGNLTVKVGDEVKALFERKENQKGYAVLSRRKAERLAVWDVIDEAGGEGGIIEGKITGKVKGGLTVDIGVQAFLPASQVDLRPGGNLDKYIGTTDRFKVLKLNKKRGNIVLSRRVLMEEERESSRKETLATLAEGQVREGVVKNITDYGAFVDIGGVDGLLHVTDMSWGRLGHPSEILKPGDKLNVKVLKYDQEKGKISLGLKQVTPDPWVSVEQKYNQGDRVKGKVVSLTDYGAFIALEDGVEGLVHVSEMSWTRRLRHPSEILTVGDEVETVVLGVDMGNRRISLGLKQVQVNPWTQLEEKYPVGTKLEGQIKSITDFGVFIGIEEGIDGLVHVSDISWTKRIKHPGEVFTKGQTVQAVVLNIDPENERLSLGIKQLLLDPWSEIPVKYRPGTRVHGKVTSVTDFGVFLEIEEGIEGLIHVSELSREKVASPKEFTNVGDELDAVVLSVDESEKKIALSIKSLQMAAEKAEIESYMQAQGEATSNLGELLKVGFRKNGDGNDLEHHHHHH
- protein production: failed

Sequence: MPVQENSFKSYSEVITGSIIYGTIGVFLDRVQDMSVGSVLFCRLLFGVFMIFFYLLLSGSLEQLRLRRNRKYLLLLGFLNAVTGICYLSAIRHSGISTAVLLLYTAPVYVNLLAPAILGEKGSSKSFLPLILSVLGVLLITRPGEILFNINAGSEFIKGLLYGILSGISFGTTIILIRYLRHDYTGISQTFWLTGVSLLFMLPSALLTPASVFLKNFDTLFLFGITITFAAILYLRGISGIKAQTGSILALLEPVSGIFFDTVVLRSPFYISTLLGCVLILTAAYLVSRNGTGDQSLKTDNQPVL
- protein production: failed

Sequence: KKPKHHVLSHDIIPASKPIAEKLQIQPESPVVELKRILYNDDQPLTFEVTHYPLDLFPGIDTFIADGVSMHDILKQQYKVVPTHNTKLLNVVYAQQEESKYLDCDIGDALFEIDKTAFTSNDQPIYCSLFLMHT
- protein production: not failed

Sequence: MNEFTAVKELSEKLLEDYKTESSFFFASPTRTILAEGEFTTVKHHEIESFPELVQAVLRNAKQAGNPNPIVVGALPFDRRKEVQLIVPEYSRISERLQLDPTNHLEINRNLTFEMTPVPDHEVYMKGVKQGIEKIKDGDLKKIVLSRSLDVKSSGKIDKQKLLRELAEHNKHGYTFAVNLPKDENENSKTLIGASPELLVSRHGMQVISNPLAGSRPRSDDPVEDKRRAEELLSSPKDLHEHAVVVEAVAAALRPYCHTLYVPEKPSVIHSEAMWHLSTEVKGELKNPNTSSLELAIALHPTPAVCGTPMEEAREAIQKIEPFDREFFTGMLGWSDLNGDGEWIVTIRCAEVQENTLRLYAGAGVVAESKPEDELAETSAKFQTMLKALGLNDSSLNEK
- protein production: not failed

Sequence: MTFGEKLLNAASTRGRLCVGIDPHESLLTSWGLPVNVDGLAEFSRACVEAFADTVALVKPQVAFYERFGSAGFAILEETIQTLRERGCLVVSDAKRGDIGSTMAGYASAWLDPASPLSSDAVTVSPYLGFHSLDPVFELAEQHGRGVFVLAATSNPEARELQDQQNADGVSISQQIVDQAAALNAPYMAQGKAGNIGVVIGATLSKPPRLSTLGGAILMPGVGAQGGTASDVDEIAGDMAHLAFPNVSRSILATGPDIAEMKNSVAKNAADFPGFPRS
- protein production: failed

Sequence: MSNMVEVPIFIAILSFIVMCIGELLAYYSVSLKYKYEFEAISFGFIFGVATLILIPKSYSNMFVLYVILGMITVYLIEKYLAYCPLSKKYCVECDNLEENRIKFIYPISFFIHTFIDGLIIAVSYISEIGLPLYLAILMHKLPAGFVLISPLKGVYKNPLYPGVFVSFGTVLGTIVGLVTLKDVSTKILLAFSGGVFLGAFLMLAPHIYEHKEEKTFLYILLGYILVGIIALH
- protein production: failed

Sequence: MKREGNMTLLVRNFIVSIALAISDFFSFVISLYLAIGVLSITISDYETVISVNQLEGWKALHWLLGLCCIAWYSMRLRHYFYRKTFWFELKEILRTLVIFAIIEIAVMAFASWSFSRYLWVLTWFFVLLLVPLARMVTKRVLDVFGLWHRDTWIIGSGANAQEAYKAINSERNLGLVIVGFIAVTGERSENKDINGVPVLAHDPDWLSSMDKKTQFIVAVESHQSEVRNAWLRNFMIKGYRYISVIPTLRGMPLDSTDMSFIFSHEVMIFRVQQNLAKWSSRILKRAFDIVGSLAIIIILSPALIYISRKVKRDGGPSIYGHERIGKGGKSFKCLKFRSMVINSKEVLEKLLDSDSEAKKEWDATFKLKNDPRITKIGAFLRRTSLDELPQLFNVLKGEMSLVGPRPIITAELIRYNDEVDYYLLSKPGMTGLWQVSGRSDVDYETRVYLDAWYVKNWSMWNDIAILFKTISVVLKKDGAY
- protein production: failed

Sequence: MPVCWSHRSDSRPASNATPLSGPVGWAHQAAPLQRLLHGTAPVILSPALEPPQHKDPAMPKLASIHLYPIKSTAGMPLTRALVTEEGLQGDRRYMVVKPDGSFITARTHPQLQQVVATPIEGGLQLRYPGLDPLILQEREFSRTPRATGVWSDSFSALQTQPQADQWLSQVAGEPVQLLWLGEESARFREKTGTRVSFADGYPLLLISQASLEDLNLRSDALHQMSQFRTNLVASGTLPFEEDGWKRIRIGEVEFRVAKPCSRCIMTTVEPGTDRFNALKEPLATLTRYRRGEDGEVYFGQNLVALNEGWIEAGSEIEVLERARAPVYPNAAPKKRELVCVAREPLARDLETFWFEAADGEPLPDYLPGQHLPISLDIGLGLRRERLQRRYTLSSTPERPERYSISVKKVGGGRISHWLHQQLQPGDRLLAAAPAGEFHLGTGRSLLLLSAGSGVTPMLSIARTLALRGELGDVHFMHLCRSEADIPAAGELHALAQQGMTLTLILSQPDTHWQGLKGRLGDDHLKQVKQLAEREVFICGPHGFMADAAARLVALGVPAERIRQESFGGAILSVARPHQAVQLRIGKQSFAGNNQGTVLDQAHKQGVDLPWSCRAGICGSCKQTLLEGEVDHPDAPAITAAERAEGKILTCCAVPLTDLVIK
- protein production: failed

Sequence: MAFDGCCPDCKLPGDDCPLIWGACNHAFHLHCILKWVNSQTSQAHCPMCRREWQFKE
- protein production: failed

Sequence: MRVLKFGGSSLADADRFLRAADIIANNAQQEEVAVVLSAPGKTTNKLVAVIEGALRNGEAELQINELEESFKTLFADIQAVLPNLEGAAFDNQVKTSLSQLRQFVHGINLLGMCPNNVNAR
- protein production: failed
